Test results reported in article PMC4724879 (Chemical science (Royal Society of Chemistry : 2010), 2014).

Molecular target: the molecule itself
Assay: crystal structure

B1: Helicobacter pylori high temperature requirement A protein (HpHtrA) (enzyme)
chain: GNIQIQSMPKVKERVSVPSKDDTIYSYHDSIKDSIKAVVNISTEKKIKNNFIGGGVFNDPFFQQFFGDLGGMIPKERMERALGSGVIISKDGYIVTNNHVIDGADKIKVTIPGSNKEYSATLVGTDSESDLAVIRITKDNLPTIKFSDSNDISVGDLVFAIGNPFGVGESVTQGIVSALNKSGIGINSYENFIQTDASINPGNSGGALIDSRGGLVGINTAIISKTGGNHGIGFAIPSNMVKDTVTQLIKTGKIERGYLGVGLQDLSGDLQNSYDNKEGAVVISVEKDSPAKKAGILVWDLITEVNGKKVKNTNELRNLIGSMLPNQRVTLKVIRDKKERAFTLTLAERKNPNKKETISAQNGAQGQLNGLQVEDLTQETKRSMRLSDDVQGVLVSQVNENSPAEQAGFRQGNIITKIEEVEVKSVADFNHALEKYKGKPKRFLVLDLNQGYRIILVK
- stoichiometry N: 6
